Target: T1, CD70 (human, UniProt P32970 1-193)
T1 sequence (looked up): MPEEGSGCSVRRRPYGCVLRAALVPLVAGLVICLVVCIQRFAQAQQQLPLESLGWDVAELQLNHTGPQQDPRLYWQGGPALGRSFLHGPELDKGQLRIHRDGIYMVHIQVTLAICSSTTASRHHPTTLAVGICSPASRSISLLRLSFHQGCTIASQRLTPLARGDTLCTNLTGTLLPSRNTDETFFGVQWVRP
Assay: cell-based or functional assay

B1: ARGX-110 (cusatuzumab) (antibody, V domains shown)
VH: EVQLVESGGGLVQPGGSLRLSCAASGFTFSVYYMNWVRQAPGKGLEWVSDINNEGGTTYYADSVKGRFTISRDNSKNSLYLQMNSLRAEDTAVYYCARDAGYSNHVPIFDSWGQGTLVTVSS
VL: QAVVTQEPSLTVSPGGTVTLTCGLKSGSVTSDNFPTWYQQTPGQAPRLLIYNTNTRHSGVPDRFSGSILGNKAALTITGAQADDEAEYFCALFISNPSVEFGGGTQLTVLG
- IC50 of killing of MOLM-13 AML cells in the presence of CFSE-labelled NK cells (ratio 1:1): 0.68 µg/mL
- IC50 of killing of MV4-11 AML cells in the presence of CFSE-labelled NK cells (ratio 1:1): 1.2 µg/mL
- IC50 of killing of NB4 AML cells in the presence of CFSE-labelled NK cells (ratio 1:1): 0.3 µg/mL
- IC50 of killing of NOMO-1 AML cells in the presence of CFSE-labelled NK cells (ratio 1:1): 0.14 µg/mL
